Experimental data reported in patent US20190016828A1 (Hoffmann-La Roche, published 2019).
Changes are numbered by the printed parent chain. Numbers in names are those of the source.

Experiments:
[1] = target: T1, human neonatal Fc-receptor (FcRn) (human, UniProt P55899 24-297; P61769 21-119); assay: FcRn affinity chromatography, anti-IGF-1R KiH antibody
T1 construct: also called human FcRn; huFcRn

[2] = target: T1, human neonatal Fc-receptor (FcRn); assay: SPR (BIAcore), FcRn immobilized on a CM5 chip, pH 6.0, 200 nM sample
Description: The binding properties of wild-type antibody and the mutants to FcRn were analyzed by surface plasmon resonance (SPR) technology using a BIAcore T100 instrument (BIAcore AB, Uppsala, Sweden). […] In the current assay, the FcRn receptor was immobilized onto a BIAcore CM5-biosensor chip (GE Healthcare Bioscience, Uppsala, Sweden) via amine coupling to a level of 400 Response units (RU). The assay was carried out at room temperature with PBS, 0.05% Tween20 pH 6.0 (GE Healthcare Bioscience) as running and dilution buffer. 200 nM of samples were injected at a flow rate of 50 μL/min at room temperature. Association time was 180 sec., dissociation phase took 360 sec. Regeneration of the chip surface was reached by a short injection of HBS-P, pH 8.0. Evaluation of SPR-data was performed by comparison of the biological response signal height at 180 sec. after injection and at 300 sec. after injection. The corresponding parameters are the RU max level (180 sec. after injection) and late stability (300 sec. after end of injection).

T1 sequence (P55899 24-297 limits assumed, chain 1 of 2): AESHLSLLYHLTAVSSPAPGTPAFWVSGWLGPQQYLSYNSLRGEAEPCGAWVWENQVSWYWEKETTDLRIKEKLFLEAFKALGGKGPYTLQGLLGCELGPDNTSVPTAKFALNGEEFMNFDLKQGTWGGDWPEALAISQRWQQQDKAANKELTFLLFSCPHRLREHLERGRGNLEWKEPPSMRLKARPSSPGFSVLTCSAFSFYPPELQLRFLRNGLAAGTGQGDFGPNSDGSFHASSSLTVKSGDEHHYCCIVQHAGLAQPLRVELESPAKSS
T1 sequence (P61769 21-119 limits assumed, chain 2 of 2): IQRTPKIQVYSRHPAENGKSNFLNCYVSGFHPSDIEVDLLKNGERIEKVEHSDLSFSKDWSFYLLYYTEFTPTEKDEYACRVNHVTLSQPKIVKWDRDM

B1: IGF-1R 0034 (antibody, human IgG1, kappa)
light: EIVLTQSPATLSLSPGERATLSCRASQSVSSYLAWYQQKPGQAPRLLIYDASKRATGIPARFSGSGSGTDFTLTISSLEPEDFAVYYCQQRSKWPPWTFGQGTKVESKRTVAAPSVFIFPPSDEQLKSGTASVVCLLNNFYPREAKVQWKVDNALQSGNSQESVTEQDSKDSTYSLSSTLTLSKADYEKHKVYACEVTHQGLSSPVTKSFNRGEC
heavy 1: not shown
heavy 2: QVELVESGGGVVQPGRSQRLSCAASGFTFSSYGMHWVRQAPGKGLEWVAIIWFDGSSTYYADSVRGRFTISRDNSKNTLYLQMNSLRAEDTAVYFCARELGRRYFDLWGRGTLVSVSSASTKGPSVFPLAPSSKSTSGGTAALGCLVKDYFPEPVTVSWNSGALTSGVHTFPAVLQSSGLYSLSSVVTVPSSSLGTQTYICNVNHKPSNTKVDKKVEPKSCDKTHTCPPCPAPELLGGPSVFLFPPKPKDTLMASRTPEVTCVVVDVSHEDPEVKFNWYVDGVEVHNAKTKPREEQYNSTYRVVSVLTVLAQDWLNGKEYKCKVSNKALPAPIEKTISKAKGQPREPQVCTLPPSRDELTKNQVSLSCAVKGFYPSDIAVEWESNGQPENNYKTTPPVLDSDGSFFLVSKLTVDKSRWQQGNVFSCSVMHEALHNAYTQKSLSLSPGK
notes: tied by description; also called <IgF-1R> IgG1 knob wt, hole I253A, H310A, H435A; anti-IGF-1R antibody, one chain with I253A/H310A/H435A
retention time on FcRn affinity column [1]: 42 min

B2: IGF-1R 0035 (antibody, human IgG1, kappa)
light: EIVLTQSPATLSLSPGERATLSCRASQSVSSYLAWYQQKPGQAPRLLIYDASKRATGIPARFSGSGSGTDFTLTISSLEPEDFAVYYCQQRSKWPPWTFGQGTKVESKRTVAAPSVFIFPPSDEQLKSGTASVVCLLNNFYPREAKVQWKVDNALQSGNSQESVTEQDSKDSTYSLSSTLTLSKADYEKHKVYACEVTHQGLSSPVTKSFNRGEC
heavy 1: not shown
heavy 2: B1 heavy 2 with A254I, H434A, A436H, Y437A
notes: also called <IGF-1R> IgG1 knob wt, hole H310A, H433A, Y436A; IGF-1R 0035 (with HHY-AAA mutation in one Fc-region polypeptide)
retention time on FcRn affinity column [1]: 42.4 min

B3: IGF-1R 0036 (antibody, human IgG1, kappa)
light: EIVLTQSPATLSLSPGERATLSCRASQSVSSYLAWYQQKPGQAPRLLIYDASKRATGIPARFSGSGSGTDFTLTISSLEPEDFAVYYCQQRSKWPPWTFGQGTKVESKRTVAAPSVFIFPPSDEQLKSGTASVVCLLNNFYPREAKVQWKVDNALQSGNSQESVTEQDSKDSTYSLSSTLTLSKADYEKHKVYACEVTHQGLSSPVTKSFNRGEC
heavy 1: not shown
heavy 2: B1 heavy 2 with M253Y, A254I, S255T, T257E, A311H, A436H
notes: tied by description; also called <IGF-1R> IgG1 knob wt, hole M252Y, S254T, T256E; anti-IGF-1R antibody, one chain with M252Y/S254T/T256E
retention time on FcRn affinity column [1]: 57.6 min

B4: IGF-1R 0037 (antibody, human IgG1, kappa)
light: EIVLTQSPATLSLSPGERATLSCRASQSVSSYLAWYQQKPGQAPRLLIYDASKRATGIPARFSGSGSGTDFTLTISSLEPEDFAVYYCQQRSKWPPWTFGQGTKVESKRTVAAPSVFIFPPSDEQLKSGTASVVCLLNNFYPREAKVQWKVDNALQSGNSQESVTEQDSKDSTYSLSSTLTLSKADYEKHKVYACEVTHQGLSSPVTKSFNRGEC
heavy 1: not shown
heavy 2: B1 heavy 2 with L252D, A254I, A311H, L315D, L433D, A436H
notes: tied by description; also called <IGF-1R> IgG1 knob wt, hole L251D, L314D, L432D; anti-IGF-1R antibody, one chain with L251D/L314D/L432D
retention time on FcRn affinity column [1]: 40.9 min

B5: YTE-mutant of anti-IGF-1R antibody (antibody, human IgG1, kappa)
light: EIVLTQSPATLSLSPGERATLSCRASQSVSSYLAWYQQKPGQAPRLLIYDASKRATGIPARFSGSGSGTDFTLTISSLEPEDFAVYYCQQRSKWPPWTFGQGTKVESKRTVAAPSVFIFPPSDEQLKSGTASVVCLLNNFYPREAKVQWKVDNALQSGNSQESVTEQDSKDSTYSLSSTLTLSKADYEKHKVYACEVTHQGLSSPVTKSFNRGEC
heavy: QVELVESGGGVVQPGRSQRLSCAASGFTFSSYGMHWVRQAPGKGLEWVAIIWFDGSSTYYADSVRGRFTISRDNSKNTLYLQMNSLRAEDTAVYFCARELGRRYFDLWGRGTLVSVSSASTKGPSVFPLAPSSKSTSGGTAALGCLVKDYFPEPVTVSWNSGALTSGVHTFPAVLQSSGLYSLSSVVTVPSSSLGTQTYICNVNHKPSNTKVDKKVEPKSCDKTHTCPPCPAPELLGGPSVFLFPPKPKDTLYITREPEVTCVVVDVSHEDPEVKFNWYVDGVEVHNAKTKPREEQYNSTYRVVSVLTVLHQDWLNGKEYKCKVSNKALPAPIEKTISKAKGQPREPQVYTLPPSRDELTKNQVSLTCLVKGFYPSDIAVEWESNGQPENNYKTTPPVLDSDGSFFLYSKLTVDKSRWQQGNVFSCSVMHEALHNHYTQKSLSLSPG
notes: IgG1; also called <IGF-1R> IgG1 with M252Y, S254T, T256E; anti-IGF-1R IgG1 with YTE mutation
binding result [2]: binds
